Measurements reported in US12202907B2, “Nucleic acids encoding and methods of producing proteins comprising antibody chains” (Innate Pharma, priority 2018, dated 2025).

T1: human Ramos lymphoma cells (CD39) (Homo sapiens, UniProt P49961)
T1 construct: cells that endogenously express CD39 at their surface; host or cells: Ramos
T1 sequence (P49961 1-510): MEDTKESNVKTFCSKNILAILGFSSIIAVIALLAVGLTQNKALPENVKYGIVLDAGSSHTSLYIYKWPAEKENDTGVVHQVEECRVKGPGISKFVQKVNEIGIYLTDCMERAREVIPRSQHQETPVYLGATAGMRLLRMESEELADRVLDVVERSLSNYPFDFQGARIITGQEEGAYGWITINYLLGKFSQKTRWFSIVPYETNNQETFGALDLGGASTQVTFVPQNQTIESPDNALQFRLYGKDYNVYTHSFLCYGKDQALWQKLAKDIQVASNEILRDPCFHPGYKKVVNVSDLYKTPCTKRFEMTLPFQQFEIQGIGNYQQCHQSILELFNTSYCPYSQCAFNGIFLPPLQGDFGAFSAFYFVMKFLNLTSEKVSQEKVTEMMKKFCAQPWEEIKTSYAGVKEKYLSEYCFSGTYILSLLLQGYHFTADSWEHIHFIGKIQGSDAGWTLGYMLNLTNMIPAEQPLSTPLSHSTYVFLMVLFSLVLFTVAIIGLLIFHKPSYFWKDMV

T2: soluble recombinant human CD39 protein (Homo sapiens, UniProt P49961)
T2 construct: made in house; host or cells: CHO cells
T2 sequence (P49961 with tags, fused parts or gaps): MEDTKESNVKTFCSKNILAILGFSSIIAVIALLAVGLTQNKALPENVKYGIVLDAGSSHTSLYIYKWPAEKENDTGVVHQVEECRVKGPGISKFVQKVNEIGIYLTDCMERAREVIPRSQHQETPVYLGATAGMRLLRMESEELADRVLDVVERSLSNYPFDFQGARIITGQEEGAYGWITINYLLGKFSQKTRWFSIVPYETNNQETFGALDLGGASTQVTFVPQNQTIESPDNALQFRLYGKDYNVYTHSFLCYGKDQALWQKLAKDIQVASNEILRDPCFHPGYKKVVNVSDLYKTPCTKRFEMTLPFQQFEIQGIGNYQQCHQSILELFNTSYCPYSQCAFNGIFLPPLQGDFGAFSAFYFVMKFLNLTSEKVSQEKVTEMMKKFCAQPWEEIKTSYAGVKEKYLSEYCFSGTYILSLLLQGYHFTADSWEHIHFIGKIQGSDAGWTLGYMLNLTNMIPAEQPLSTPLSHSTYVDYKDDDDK

T3: CD39 expressed by Ramos human lymphoma cells (Homo sapiens, UniProt P49961)
T3 construct: cells that endogenously express CD39 at their surface; host or cells: Ramos
T3 sequence (P49961 1-510): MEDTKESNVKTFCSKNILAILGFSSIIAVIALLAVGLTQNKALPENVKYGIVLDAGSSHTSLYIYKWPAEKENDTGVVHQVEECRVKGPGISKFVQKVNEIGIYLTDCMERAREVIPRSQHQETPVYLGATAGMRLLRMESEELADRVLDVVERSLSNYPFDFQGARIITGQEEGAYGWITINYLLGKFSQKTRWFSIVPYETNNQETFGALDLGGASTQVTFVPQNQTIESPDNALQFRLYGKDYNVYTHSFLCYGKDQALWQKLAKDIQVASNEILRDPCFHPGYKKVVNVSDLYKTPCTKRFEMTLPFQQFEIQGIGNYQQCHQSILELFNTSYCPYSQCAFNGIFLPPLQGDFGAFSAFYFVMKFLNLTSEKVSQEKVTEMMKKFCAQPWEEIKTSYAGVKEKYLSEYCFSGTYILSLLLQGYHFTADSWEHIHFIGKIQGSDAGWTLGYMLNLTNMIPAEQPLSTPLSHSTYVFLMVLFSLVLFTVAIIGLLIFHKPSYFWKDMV


Assays:
[1] = Stability in reference formulation (storage, freeze thaw); type: physicochemical; conditions: about 7 mg/mL, pH 6.0 histidine/sucrose/NaCl/PS80, +5° C. and +40° C., up to 1 month
Method: (§1) Antibodies mAb1-24 and prior art anti-CD39 antibody BY40, all produced as human IgG1 isotypes with L234A/L235E/G237A/A330S/P331S substitutions were tested for stability in the following reference formulation at a concentration of approximatively 7 mg/mL: pH 6.0; histidine buffer (10 mM); sucrose (200 mM); NaCl (50 mM); Polysorbate 80 (PS80) (0.2 g/L). The stability of the formulations was monitored in two storage conditions (at +5° C.±3° C. and at +40±3° C. For each study, 3 time points were performed: T0, T15D (15 days) and T1M (1 month). A freeze thaw (F/T) and a thermal shift stability assay (TSSA) were conducted for the format comparison. To perform F/T cycles, the samples were frozen at least 2 hours at −20° C. and thawed at least 1 hour at room temperature, the F/T cycle is repeated three times and samples are tested 24 h after the last Freeze/Thaw cycle. At each time point, the following tests were performed: • Particulate Matter (MFI) • Visual Inspection (Appearance) • Impurities (SE-HPLC) • Turbidity (400 nm) • Protein Concentration (280 nm) (performed with Nanodrop, Thermo Fisher Scientific Inc.)

[2] = target: T1, human Ramos lymphoma cells (CD39); assay: Antibody titration on Ramos cells by flow cytometry; type: binding; conditions: comparison
Method: Antibody I-394 was tested in two repeated experiments for binding to CHO cells expressing human CD39, CHO cells expressing cynomolgus (Macaca fascicularis) CD39, CHO cells expressing murine CD39, and human Ramos lymphoma cells (ATCC™, reference CRL-1596). Cells were incubated with various concentration of unlabeled anti-CD39 antibody from 30 μg/ml to 5×10^−4 μg/ml, for 30 minutes at 4° C. After washes, cells were incubated with Goat anti-mouse H+L labeled secondary antibody for 30 min at 4° C.

[3] = Aggregation temperature (thermal shift stability assay); type: physicochemical; conditions: human IgG1 with L234A/L235E/G237A/A330S/P331S
Method: as §1

[4] = target: T2, soluble recombinant human CD39 protein; assay: Inhibition of the enzymatic activity of soluble CD39 (Cell Titer Glo, cell-free); type: biochemical; conditions: humanized variants
Method: The inhibition by antibodies of the enzymatic activity of soluble CD39 protein produced was evaluated using Cell Titer GIo™ (Promega, reference G7571) that allows assessment of ATP hydrolysis through use of a reagent that generates a luminescent signal proportional to the amount of ATP present. In this way, inhibition of the soluble-CD39-meidated ATP hydrolysis can be assessed. Briefly, dose ranges of anti-CD39 antibodies from 100 μg/ml to […] were incubated with 400 ng/ml of soluble recombinant human CD39 protein having the amino acid sequence described in the Methods section (SEQ ID NO: 44), for 1 h at 37° C. 20 μM ATP was added to the plates for 30 additional minutes at 37° C. before addition of CTG (Cell Titer Glo) reagent. Emitted light was quantified using an Enspire™ luminometer after a short incubation period of 5 min in the dark. Anti-CD39 antibody efficacy was determined by comparing emitted light in presence of antibody with ATP alone (maximal light emission) and ATP together with soluble CD39 protein (minimal light emission).

[5] = target: T3, CD39 expressed by Ramos human lymphoma cells; assay: Inhibition of the enzymatic activity of cellular CD39 in Ramos cells; type: cell-based; conditions: Ramos cells
Method: The inhibition of the CD39 enzymatic activity in CD39-expressing cells by antibodies was evaluated using Cell Titer GIo™ (Promega, reference G7571) that allows assessment of ATP hydrolysis through use of a reagent that generates a luminescent signal proportional to the amount of ATP present. The assay was thus designed to permit assessment of the inhibition of ATP hydrolyzed by CD39 in the cell culture supernatant. Briefly, 5×10^4 Ramos human lymphoma cells, 5×10^3 human CD39−, cynomolgus CD39—and mouse CD39− expressing CHO cells, were incubated 1 hour at 37° C. with anti-CD39 antibodies from 30 μg/ml to 5×10^−4 μg/ml. Cells were then incubated with 20 μM ATP for 1 additional hour at 37° C. Plates were centrifuged for 2 min at 400 g and 50 μl cell supernatant are transferred in a luminescence microplate (white wells). 50 μl CellTiter-Glo™ Reagent (CTG) was added to the supernatant and emitted light was quantified after a 5 min incubation in the dark using a Enspire™ luminometer. Anti-CD39 antibody efficacy was determined by comparing emitted light in presence of antibody with ATP alone (maximal light emission) and ATP together with cells (minimal light emission).

Molecule	physicochemical stability [1]	binding to Ramos cells relative to I-394 [2]	Aggregation temperature (TAgg) [3] [°C]	potency for inhibition of soluble CD39 relative to parental I-394 [4]	potency at blocking CD39 enzymatic activity relative to other antibodies [5]
mAb8: humanized I-394 variant, VH H2 (SEQ ID NO: 29), VL L1 (SEQ ID NO: 36) (antibody, V domains shown) VH: QVQLVQSGAEVKKPGASVKVSCKASGYTFTDYNMHWVRQAPGQRLEWMGYIVPLNGGSTFNQKFKGRATITVDTSASTAYMELSSLRSEDTAVYYCARGGTRFAYWGQGTLVTVSS VL: DIVMTQSPDSLAVSLGERATINCRASESVDNFGVSFMYWFQQKPGQPPKLLIYGASNQGSGVPDRFSGSGSGTDFTLTISSLQAEDVAVYYCQQTKEVPYTFGGGTKVEIK	good physicochemical stability	best binding	~70		
mAb9: humanized I-394 variant, VH H2 (SEQ ID NO: 29), VL L1* (SEQ ID NO: 37) (antibody, V domains shown) VH: QVQLVQSGAEVKKPGASVKVSCKASGYTFTDYNMHWVRQAPGQRLEWMGYIVPLNGGSTFNQKFKGRATITVDTSASTAYMELSSLRSEDTAVYYCARGGTRFAYWGQGTLVTVSS VL: DIVMTQSPDSLAVSLGERATINCKASESVDNFGVSFMYWFQQKPGQPPKLLIYGASNQGSGVPDRFSGSGSGTDFTLTISSLQAEDVAVYYCQQTKEVPYTFGGGTKVEIK	good physicochemical stability	best binding	~70		
mAb15: humanized I-394 variant, VH H3 (SEQ ID NO: 30), VL L1* (SEQ ID NO: 37) (antibody, V domains shown) VH: QVQLVQSGAEVKKPGASVKVSCKASGYTFTDYNMHWVRQAPGQRLEWIGYIVPLNGGSTFNQKFKGRATITVDTSASTAYMELSSLRSEDTAVYYCARGGTRFAYWGQGTLVTVSS VL: DIVMTQSPDSLAVSLGERATINCKASESVDNFGVSFMYWFQQKPGQPPKLLIYGASNQGSGVPDRFSGSGSGTDFTLTISSLQAEDVAVYYCQQTKEVPYTFGGGTKVEIK				comparable to the parental I-394 antibody	
mAb14: humanized I-394 variant, VH H3 (SEQ ID NO: 30), VL L1 (SEQ ID NO: 36) (antibody, V domains shown) VH: QVQLVQSGAEVKKPGASVKVSCKASGYTFTDYNMHWVRQAPGQRLEWIGYIVPLNGGSTFNQKFKGRATITVDTSASTAYMELSSLRSEDTAVYYCARGGTRFAYWGQGTLVTVSS VL: DIVMTQSPDSLAVSLGERATINCRASESVDNFGVSFMYWFQQKPGQPPKLLIYGASNQGSGVPDRFSGSGSGTDFTLTISSLQAEDVAVYYCQQTKEVPYTFGGGTKVEIK				comparable to the parental I-394 antibody	
mAb24: humanized I-394 variant, VH H4* (SEQ ID NO: 34), VL L1* (SEQ ID NO: 37) (antibody, V domains shown) VH: QVQLVQSGAEVKKPGASVKVSCKASGYTFTDYNMHWVRQAPGQRLEWIGYIVPLNGGSTFSQKFQGRATITVDTSARTAYMELSSLRSEDTAVYYCARGGTRFAYWGQGTLVTVSS VL: DIVMTQSPDSLAVSLGERATINCKASESVDNFGVSFMYWFQQKPGQPPKLLIYGASNQGSGVPDRFSGSGSGTDFTLTISSLQAEDVAVYYCQQTKEVPYTFGGGTKVEIK					slightly lower potency than mAb20 and mAb21
mAb23: humanized I-394 variant, VH H4* (SEQ ID NO: 34), VL L1 (SEQ ID NO: 36) (antibody, V domains shown) VH: QVQLVQSGAEVKKPGASVKVSCKASGYTFTDYNMHWVRQAPGQRLEWIGYIVPLNGGSTFSQKFQGRATITVDTSARTAYMELSSLRSEDTAVYYCARGGTRFAYWGQGTLVTVSS VL: DIVMTQSPDSLAVSLGERATINCRASESVDNFGVSFMYWFQQKPGQPPKLLIYGASNQGSGVPDRFSGSGSGTDFTLTISSLQAEDVAVYYCQQTKEVPYTFGGGTKVEIK					slightly lower potency than mAb20 and mAb21
